Experimental data from patent US20250289893A1 (OXFORD UNIVERSITY INNOVATION, published 2025).
Values belong to the molecule of their own block, whether it stands above or below them.

Legend:
[1] = molecular target: T1, human CD1a expressed on cells (human, UniProt P06126 17-327; P61769 21-119); assay: flow cytometry of ear skin cells of CD1a transgenic mice given isotype control (CD1a : iso), stained with HI149; gated population not named on the sheet; no percent sign printed
T1 construct: also called HEK - CD1a; C1R - CD1a

[2] = molecular target: T1, human CD1a expressed on cells; assay: flow cytometry of ear skin cells of CD1a transgenic mice given antibody 116 100 µg i.p. on days 0, 2, 4 (CD1a : OX116), stained with HI149 on day 5; the cloud lies on the lower edge of the gate; no percent sign printed
[3] = molecular target: T1, human CD1a expressed on cells; assay: flow cytometry of ear skin cells of CD1a transgenic mice given antibody 116 100 µg i.p. on days 0, 2, 4 (CD1a : OX116), stained with SK9 on day 5; no percent sign printed
[4] = molecular target: T1, human CD1a expressed on cells; assay: flow cytometry of ear skin cells of CD1a transgenic mice given isotype control (CD1a : iso), stained with SK9; gated population not named on the sheet; no percent sign printed
[5] = molecular target: Chinese variant CD1a protein (human) (UniProt P06126); assay: ELISA, 0.1 µg/ml antibody
Chain of Chinese variant CD1a protein (human) (P06126 18-295, stated change not applied): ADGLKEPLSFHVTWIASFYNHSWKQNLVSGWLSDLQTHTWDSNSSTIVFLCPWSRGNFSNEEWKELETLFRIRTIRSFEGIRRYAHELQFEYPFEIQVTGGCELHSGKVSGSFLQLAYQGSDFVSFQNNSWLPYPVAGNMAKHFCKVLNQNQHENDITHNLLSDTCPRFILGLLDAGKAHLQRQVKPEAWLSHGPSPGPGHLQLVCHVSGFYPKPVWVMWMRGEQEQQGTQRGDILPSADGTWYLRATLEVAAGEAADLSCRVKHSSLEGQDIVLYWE

[6] = molecular target: chimeric CD1a pool B protein [human CD1a lipid binding domain, mouse CD1d Ig domain] (human; mouse) (UniProt P06126); assay: ELISA, 0.1 µg/ml antibody
Chain of chimeric CD1a pool B protein [human CD1a lipid binding domain, mouse CD1d Ig domain] (human; mouse) (P06126 other isoform, or with tags, fused parts or gaps mutant limits assumed): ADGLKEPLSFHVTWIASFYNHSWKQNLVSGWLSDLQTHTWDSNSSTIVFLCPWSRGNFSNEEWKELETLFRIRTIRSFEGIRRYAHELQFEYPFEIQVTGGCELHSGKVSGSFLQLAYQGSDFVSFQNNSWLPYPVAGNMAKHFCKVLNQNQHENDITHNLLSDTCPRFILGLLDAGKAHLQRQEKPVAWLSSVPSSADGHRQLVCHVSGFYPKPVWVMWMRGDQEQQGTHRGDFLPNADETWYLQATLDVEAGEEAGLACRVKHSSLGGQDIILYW

[7] = molecular target: Chinese variant CD1a protein (human) (UniProt P06126); assay: ELISA, 0.01 µg/ml antibody
[8] = molecular target: T2, human CD1a protein (pool B) (human, UniProt P06126 18-295, limits assumed); assay: ELISA, 1 µg/ml antibody
T2 construct: Recombinant protein of the ELISA (coated) and the Biacore T200 titration; whole entry named; also called human CD1a pool B; full length CD1a
T2 sequence (P06126 18-295 limits assumed): as the sequence (P06126 18-295, stated change not applied) above

[9] = molecular target: T2, human CD1a protein (pool B); assay: ELISA, 0.1 µg/ml antibody
[10] = molecular target: T2, human CD1a protein (pool B); assay: ELISA, 0.316 µg/ml antibody
[11] = molecular target: chimeric CD1a pool B protein [human CD1a lipid binding domain, mouse CD1d Ig domain] (human; mouse) (UniProt P06126); assay: ELISA, 0.316 µg/ml antibody
[12] = molecular target: T3, Cynomolgus monkey CD1a protein (Cynomolgus monkey); assay: ELISA, 0.1 µg/ml antibody
T3 chain: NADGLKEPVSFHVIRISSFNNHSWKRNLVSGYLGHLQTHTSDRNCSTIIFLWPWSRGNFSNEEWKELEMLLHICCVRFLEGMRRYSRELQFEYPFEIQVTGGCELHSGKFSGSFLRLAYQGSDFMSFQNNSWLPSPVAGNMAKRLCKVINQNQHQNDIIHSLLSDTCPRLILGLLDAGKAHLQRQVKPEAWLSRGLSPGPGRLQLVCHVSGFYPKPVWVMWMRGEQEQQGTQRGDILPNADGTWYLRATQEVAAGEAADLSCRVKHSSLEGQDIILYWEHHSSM

[13] = molecular target: T2, human CD1a protein (pool B); assay: ELISA, 10 µg/ml antibody
[14] = molecular target: T3, Cynomolgus monkey CD1a protein; assay: ELISA, 0.01 µg/ml antibody
[15] = molecular target: T3, Cynomolgus monkey CD1a protein; assay: ELISA, 10 µg/ml antibody
[16] = molecular target: T2, human CD1a protein (pool B); assay: ELISA, 100 µg/ml antibody
[17] = molecular target: chimeric CD1a pool B protein [human CD1a lipid binding domain, mouse CD1d Ig domain] (human; mouse) (UniProt P06126); assay: ELISA, 31.6 µg/ml antibody
[18] = molecular target: T2, human CD1a protein (pool B); assay: ELISA, 31.6 µg/ml antibody
[19] = molecular target: T3, Cynomolgus monkey CD1a protein; assay: ELISA, 1 µg/ml antibody
[20] = molecular target: chimeric CD1a pool B protein [human CD1a lipid binding domain, mouse CD1d Ig domain] (human; mouse) (UniProt P06126); assay: ELISA, 0.0316 µg/ml antibody
[21] = molecular target: chimeric CD1a pool B protein [human CD1a lipid binding domain, mouse CD1d Ig domain] (human; mouse) (UniProt P06126); assay: ELISA, 3.16 µg/ml antibody
[22] = molecular target: T2, human CD1a protein (pool B); assay: ELISA, 3.16 µg/ml antibody
[23] = molecular target: Chinese variant CD1a protein (human) (UniProt P06126); assay: ELISA, 10 µg/ml antibody
[24] = molecular target: chimeric CD1a pool B protein [human CD1a lipid binding domain, mouse CD1d Ig domain] (human; mouse) (UniProt P06126); assay: ELISA, 10 µg/ml antibody
[25] = molecular target: chimeric CD1a pool B protein [human CD1a lipid binding domain, mouse CD1d Ig domain] (human; mouse) (UniProt P06126); assay: ELISA, 100 µg/ml antibody
[26] = molecular target: Chinese variant CD1a protein (human) (UniProt P06126); assay: ELISA, 1 µg/ml antibody
[27] = molecular target: chimeric CD1a pool B protein [human CD1a lipid binding domain, mouse CD1d Ig domain] (human; mouse) (UniProt P06126); assay: ELISA, 1 µg/ml antibody
[28] = molecular target: T2, human CD1a protein (pool B); assay: ELISA, 0.0316 µg/ml antibody
[29] = molecular target: chimeric CD1a pool B protein [human CD1a lipid binding domain, mouse CD1d Ig domain] (human; mouse) (UniProt P06126); assay: ELISA on chimeric CD1a (human alpha 1 and alpha 2 domains, murine CD1d alpha 3 domain), size exclusion pool B; antibody concentration not given
[30] = molecular target: Chinese variant CD1a protein (human) (UniProt P06126); assay: ELISA on coated minor CD1A variant protein; antibody concentration not given
[31] = molecular target: T2, human CD1a protein (pool B); assay: Biacore, column KD2 of the heterogeneous ligand model; no unit on the sheet or in the legend, M taken from Table 10 of the same Biacore method
[32] = molecular target: T2, human CD1a protein (pool B); assay: Biacore, column KD1 of the heterogeneous ligand model; no unit on the sheet or in the legend, M taken from Table 10 of the same Biacore method
[33] = molecular target: T4, Human CD1a/β2m heterodimer (soluble, de-glycosylated) (human, UniProt P61769 21-119); assay: SPR, OX116-scFv immobilised on streptavidin chip, CD1a-endo (endogenous lipids) injected up to 1000 nM; 1:1 specific binding fit of response against concentration; row printed as Kd, unit nM from the legend paragraph 90
T4 construct: Expressed in HEK293S cells with fos-jun zippers, BirA tag and His-tag, which were cleaved off with thrombin; deglycosylated with EndoH; Carries endogenous lipids or a loaded lipid (named under assay); also called CD1a-endo; CD1a-sphingomyelin

[34] = molecular target: T4, Human CD1a/β2m heterodimer (soluble, …); assay: SPR, OX116-scFv immobilised, CD1a-LPC (lysophosphatidylcholine) injected up to 1000 nM; 1:1 specific binding fit; row printed as Kd, unit nM from the legend paragraph 90
[35] = molecular target: T4, Human CD1a/β2m heterodimer (soluble, …); assay: SPR, OX116-scFv immobilised, CD1a-GD3 (GD3 ganglioside) injected up to 1000 nM; 1:1 specific binding fit; row printed as Kd, unit nM from the legend paragraph 90
[36] = molecular target: T4, Human CD1a/β2m heterodimer (soluble, …); assay: SPR, OX116-scFv immobilised, CD1a-SM24:1 (sphingomyelin) injected up to 1000 nM; 1:1 specific binding fit; row printed as Kd, unit nM from the legend paragraph 90
[37] = molecular target: T4, Human CD1a/β2m heterodimer (soluble, …); assay: SPR, OX16-scFv immobilised, CD1a-GD3 (GD3 ganglioside) injected up to 1000 nM; 1:1 specific binding fit; row printed as Kd, unit nM from the legend paragraph 90
[38] = molecular target: T4, Human CD1a/β2m heterodimer (soluble, …); assay: SPR, OX16-scFv immobilised, CD1a-LPC (lysophosphatidylcholine) injected up to 1000 nM; 1:1 specific binding fit; row printed as Kd, unit nM from the legend paragraph 90
[39] = molecular target: T4, Human CD1a/β2m heterodimer (soluble, …); assay: SPR, OX16-scFv immobilised, CD1a-SM24:1 (sphingomyelin) injected up to 1000 nM; 1:1 specific binding fit; row printed as Kd, unit nM from the legend paragraph 90
[40] = molecular target: T4, Human CD1a/β2m heterodimer (soluble, …); assay: SPR, OX16-scFv immobilised on streptavidin chip, CD1a-endo (endogenous lipids) injected up to 1000 nM; 1:1 specific binding fit of response against concentration; row printed as Kd, unit nM from the legend paragraph 90

Molecule: HI149 (antibody)
CD1a+ (gate frequency) [1]: 82.2%
CD1a+ (gate frequency) [2]: 46.6%

Molecule: SK9 (antibody)
CD1a+ (gate frequency) [3]: 87.4%
CD1a+ (gate frequency) [4]: 84.9%

B3: OX16 scFv (scFv)
scFv: DAEVQLVESGGGLVKPGGSLKLSCAASGFTFSNYAMSWVRQTPEKRLEWVAAINSNGGSAYYPDTVKDRFTISRDNAKNTLYLQMSSLRSEDTALYYCARRFYYDYGWFAYWGQGTLVTVSSGGGGSGGGGSGGGGSDIVLTQSPASLSASVGETVTITCRASENIDSYLAWYQQKQGKSPQLLVYAATLLADGVPSRFSGSGSGTQYSLKINSLQSEDVARYYCQHYYSSPWTFGGGTKLEIKSGLEVLFQGPGSGLNDIFEAQKIEWHEHHHHHH
notes: SPR: biotinylated on the C-terminal tag and coupled to streptavidin; Crystals: BirA and His-tag cleaved off with 3C protease; also called 16 ScFv full; single chain variable construct of OX16
Kd [37]: 1270 nM
Kd [38]: 1010 nM
Kd [39]: 860 nM
Kd [40]: 476 nM

Further lines, results first:

Optical Density (OD) [5]: 0.08 OD
Optical Density (OD) [6]: 0.08 OD
Optical Density (OD) [7]: 0.08 OD
Optical Density (OD) [8]: 0.07 OD
Optical Density (OD) [9]: 0.06 OD
Optical Density (OD) [10]: 0.07 OD
Optical Density (OD) [11]: 0.09 OD
Optical Density (OD) [12]: 0.07 OD
Optical Density (OD) [13]: 0.07 OD
Optical Density (OD) [14]: 0.06 OD
Optical Density (OD) [15]: 0.09 OD
Optical Density (OD) [16]: 0.07 OD
Optical Density (OD) [17]: 0.08 OD
Optical Density (OD) [18]: 0.06 OD
Optical Density (OD) [19]: 0.07 OD
Optical Density (OD) [20]: 0.09 OD
Optical Density (OD) [21]: 0.1 OD
Optical Density (OD) [22]: 0.06 OD
Optical Density (OD) [23]: 0.14 OD
Optical Density (OD) [24]: 0.08 OD
Optical Density (OD) [25]: 0.08 OD
Optical Density (OD) [26]: 0.08 OD
Optical Density (OD) [27]: 0.09 OD
Optical Density (OD) [28]: 0.06 OD
Molecule: control rabbit IgG antibody

optical density (ELISA) [29]: 0.11
optical density (ELISA) [30]: 0.736
Kd [31]: 2.1 nM
Kd [32]: 15 nM
B1: OX25 (antibody, V domains shown)
VH: QVQLQQSGPGLVAPSQSLFITCTVSGFSLTTYEINWVRQPPGKGLEWLGVIWTGGSTNYNSALISRLSISKDNSKSLVFLKMNSLQTDDTAIYYCVRTLPYYYAMDYWGQGTSVTVSS
VL: EIVLTQSPALMAASPGEKVTITCSVSSSISSSNLHWYQQKSGTSPKPWIYGTSNLASGVPVRFSGSGSGTSYSLTISSMEAEDAATYYCQQWSSYPPTFGSGTKLEIK
notes: also called antibody 25; Ab 25

Kd [33]: 483 nM
Kd [34]: 1520 nM
Kd [35]: 329 nM
Kd [36]: 529 nM
B2: OX116 scFv (scFv)
scFv: DAQSVEESGGRLVTPGTPLTLTCTVSGFSLSNYAMSWVRQAPGKGLEWIGIIYTTGFTYYASWVKGRFTISKTSTTVDLKITSPTTEDTATYFCARGLATYVSPPTRLDLWGQGTLVTVSSGGGGSGGGGSGGGGSAQVLTQTPSPVSAAVGGTVTINCQASQSIYNSKNLAWYQQKPGQPPKLLIYSASTLASGVPSRFKGSGSGTQFTLTISDLESDDAATYYCQGEFSCSSVDCATFGGGTEVVVKSGLEVLFQGPGSGLNDIFEAQKIEWHEHHHHHH
notes: SPR: biotinylated on the C-terminal tag and coupled to streptavidin; Crystals: tags cleaved off with 3C protease; also called OX116 Ab fragment
